Results taken from patent US20190234935A1 (Janssen / Centocor, published 2019).

Columns and labels:
[1] = target: T1, GFRα3 (Retrogenix library, on HEK293 cells) (human, UniProt O60609 32-374); assay: Retrogenix cell microarray on HEK293 cells
T1 construct: whole, on cells
T1 sequence (looked up): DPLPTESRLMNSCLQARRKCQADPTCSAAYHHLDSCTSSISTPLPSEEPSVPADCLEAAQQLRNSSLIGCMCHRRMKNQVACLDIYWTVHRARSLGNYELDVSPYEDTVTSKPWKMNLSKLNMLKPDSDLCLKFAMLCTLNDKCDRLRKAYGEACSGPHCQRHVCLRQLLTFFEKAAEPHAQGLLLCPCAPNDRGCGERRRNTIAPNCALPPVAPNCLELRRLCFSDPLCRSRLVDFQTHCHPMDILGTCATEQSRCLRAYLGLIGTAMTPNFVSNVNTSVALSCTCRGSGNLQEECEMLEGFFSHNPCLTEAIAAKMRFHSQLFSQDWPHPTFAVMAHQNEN
Description: (§1) In parallel, two studies were performed at Retrogenix Ltd (Whaley Bridge, High Peak, Derbyshire, UK) using Retrogenix' Cell Microarray technology to screen for binding partners for the Fc-GDF15 fusion molecule. Two studies were performed to screen Retrogenix's plasma membrane protein library, first on 3500 proteins and second on an additional 993 proteins, with total number of proteins screened being 4493. A background screen was performed prior to the primary screen to detect the background level of binding of the test ligand Fc-GDF15 at 2, 5, and 20 ug/ml with blank slides coated with live HEK293 cells and detected by using an AlexaFluor647 anti-Fc antibody. In the primary screen, vectors encoding each full-length human plasma membrane protein in the library were arrayed in duplicates on Retrogenix's cell microarray slides (referred to as ‘slide-set’). Three replicate slide-set were used in the primary screen. Control expression vector (pIRES-hEGFR-IRES-ZsGreen1) was spotted in quadruplicate on every slide to ensure that a minimal threshold of transfection efficiency had been achieved or exceeded on every slide. HEK293 cells were used for reverse transfection in live conditions. The test ligand Fc-GDF15 was added at the concentration of 20 ug/ml to each slide set. After the addition of test ligand, cell fixation was performed and the AlexaFluor647 anti-Fc antibody was used for binding detection. Fluorescent images were analyzed using ImageQuant software (GE) and a protein ‘hit’ is defined as a duplicate spot showing a raised signal compared to background levels by visual inspection using the images gridded on the ImageQuant software. Hits identified in the primary screen were tested in a confirmation screen, where all vectors encoding the hits in at least one of the three replicate primary screening slide-sets were arrayed on new slides. Confirmation screening was performed similar to the primary screening, with the addition of control samples for binding Fc. Binding of cells overexpressing CD86 to human CTLA4 fused to human Fc, served as a positive control, and binding to Fc alone served as a negative control.

[2] = target: T2, GFRα4 (Retrogenix library, on HEK293 cells) (human, UniProt Q9GZZ7 21-278); assay: Retrogenix cell microarray on HEK293 cells
T2 construct: whole, on cells
T2 sequence (looked up): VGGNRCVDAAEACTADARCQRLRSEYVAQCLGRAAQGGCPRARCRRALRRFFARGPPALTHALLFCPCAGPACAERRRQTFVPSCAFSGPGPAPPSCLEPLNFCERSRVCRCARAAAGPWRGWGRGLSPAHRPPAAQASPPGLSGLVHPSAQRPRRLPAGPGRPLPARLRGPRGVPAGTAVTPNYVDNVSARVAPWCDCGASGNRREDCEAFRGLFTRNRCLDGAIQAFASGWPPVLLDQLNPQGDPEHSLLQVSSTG
Description: as §1

[3] = target: T3, GFRα2 (Retrogenix library, on HEK293 cells) (human, UniProt O00451 22-444); assay: Retrogenix cell microarray on HEK293 cells
T3 construct: whole, on cells
T3 sequence (looked up): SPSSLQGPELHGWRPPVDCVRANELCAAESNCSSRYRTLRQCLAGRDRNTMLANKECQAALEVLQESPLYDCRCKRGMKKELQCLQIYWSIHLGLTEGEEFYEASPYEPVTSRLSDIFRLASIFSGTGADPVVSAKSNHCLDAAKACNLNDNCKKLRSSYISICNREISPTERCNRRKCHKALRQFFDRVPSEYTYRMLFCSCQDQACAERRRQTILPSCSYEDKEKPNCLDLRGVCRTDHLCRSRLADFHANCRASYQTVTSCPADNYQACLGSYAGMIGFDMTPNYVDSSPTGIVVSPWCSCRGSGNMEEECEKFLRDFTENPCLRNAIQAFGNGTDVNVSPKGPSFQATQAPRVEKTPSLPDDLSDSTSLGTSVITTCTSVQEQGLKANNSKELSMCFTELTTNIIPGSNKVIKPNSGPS
Description: as §1

[4] = target: T4, GFRα1 (Retrogenix library, on HEK293 cells) (human, UniProt P56159 25-429); assay: Retrogenix cell microarray on HEK293 cells
T4 construct: whole, on cells
T4 sequence (looked up): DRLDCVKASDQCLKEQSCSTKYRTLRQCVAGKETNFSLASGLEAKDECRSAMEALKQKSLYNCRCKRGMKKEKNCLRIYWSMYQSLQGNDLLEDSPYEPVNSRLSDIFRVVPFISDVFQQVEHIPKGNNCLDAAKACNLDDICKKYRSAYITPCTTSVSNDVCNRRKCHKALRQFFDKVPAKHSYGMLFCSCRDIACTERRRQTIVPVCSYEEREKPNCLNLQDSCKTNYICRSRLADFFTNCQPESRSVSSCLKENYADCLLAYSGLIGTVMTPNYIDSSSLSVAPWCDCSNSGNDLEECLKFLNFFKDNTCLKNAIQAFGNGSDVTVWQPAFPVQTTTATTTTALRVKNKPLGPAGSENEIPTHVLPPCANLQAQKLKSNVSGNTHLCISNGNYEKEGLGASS
Description: as §1

[5] = target: T5, N-terminally flag tagged full-length GFRAL on transiently transfected HEK293F cells (Homo sapiens (Human), UniProt Q6UXV0 19-394); assay: FACS on GFRAL-expressing HEK293F cells, dose response
T5 construct: also called GFRAL-overexpressing HEK293F cells; GFRAL-expressing cells
T5 sequence: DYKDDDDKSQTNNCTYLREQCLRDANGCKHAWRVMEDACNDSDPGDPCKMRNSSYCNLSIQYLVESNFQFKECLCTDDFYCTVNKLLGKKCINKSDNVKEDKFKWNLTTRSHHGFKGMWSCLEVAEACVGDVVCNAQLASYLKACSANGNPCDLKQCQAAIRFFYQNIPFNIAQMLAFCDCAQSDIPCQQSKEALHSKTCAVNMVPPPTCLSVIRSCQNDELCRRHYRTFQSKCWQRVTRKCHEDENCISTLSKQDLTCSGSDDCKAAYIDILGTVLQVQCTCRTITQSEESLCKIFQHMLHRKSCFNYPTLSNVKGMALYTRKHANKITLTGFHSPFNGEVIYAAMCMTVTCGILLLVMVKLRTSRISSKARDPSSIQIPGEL

binding result [1]: no binding (tested: 20 ug/ml) | binding result [2]: no binding (tested: 20 ug/ml) | binding result [3]: no binding (tested: 20 ug/ml) | binding result [4]: no binding (tested: 20 ug/ml) | EC50 [5]: 0.258 nM
B1: heterodimeric Fc-GDF15 fusion molecule (Fc fusion)
chain 1: CPPCPAPEAAGGPSVFLFPPKPKDTLMISRTPEVTCVVVDVSQEDPEVQFNWYVDGVEVHNAKTKPREEQFNSTYRVVSVLTVLHQDWLNGKEYKCKVSNKGLPSSIEKTISKAKGQPREPQVYTLPPSQEEMTKNQVSLSCAVKGFYPSDIAVEWESNGQPENNYKTTPPVLDSDGSFFLVSRLTVDKSRWQEGNVFSCSVMHEALHNHYTQKSLSLSLGKGSGGGARNGDHCPLGPGRCCRLHTVRASLEDLGWADWVLSPREVQVTMCIGACPSQFRAANMHAQIKTSLHRLKPDTVPAPCCVPASYNPMVLIQKTDTGVSLQTYDDLLAKDCHCI
chain 2: CPPCPAPEAAGGPSVFLFPPKPKDTLMISRTPEVTCVVVDVSQEDPEVQFNWYVDGVEVHNAKTKPREEQFNSTYRVVSVLTVLHQDWLNGKEYKCKVSNKGLPSSIEKTISKAKGQPREPQVYTLPPSQEEMTKNQVSLWCLVKGFYPSDIAVEWESNGQPENNYKTTPPVLDSDGSFFLYSRLTVDKSRWQEGNVFSCSVMHEALHNHYTQKSLSLSLGK
notes: also called Fc-GDF15 ligand
